Experimental findings from US20180222961A1 (IMMATICS BIOTECHNOLOGIES, published 2018) are described below.

One test deals with T1, HLA-A*02:01 (human).
T1 construct: also called peptide-receptive MHC molecules
Briefly: UV-exchange b2m ELISA; exchange-yield grade. An outline of the steps: (§1)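 Peptide–MHC complexes formed by UV-ligand exchange, in which a UV-cleavable peptide is replaced by the test peptide. Exchange yield measured by ELISA detecting β2m of stabilised complexes captured on streptavidin, against refolded HLA-A*02:01/MLA-001 monomer standards (15-500 ng/ml); samples diluted 100-fold.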

The target of another test is T2, HLA-B*44:02 (human).
T2 construct: also called peptide-receptive MHC molecules
Briefly: UV-exchange b2m ELISA; exchange-yield grade. An outline of the steps: as §1
(In general: An ELISA detects its analyte on a solid surface through an enzyme-linked reagent.)

The target in test [1] is T3, human recombinant HLA-B*08:01 and b2m (human).
T3 construct: expressed in E. coli and purified; stability of the peptide-MHC complex read as b2m associated with the heavy chain over time at 37 C
Briefly: pMHC dissociation assay at 37 C; mean half-life grade. On the procedure:
Peptide-MHC stability assays for HLA-B*08:01 peptides were performed. The data were obtained using a proximity based, homogenous, real-time assay in order to measure the dissociation of peptides from HLA class I molecules. First, human recombinant HLA-B*08:01 and b2m were expressed in E. coli and purified in a series of liquid chromatography based steps (Ferre et al., 2003; Ostergaard et al., 2001). Then, the stability of a peptide-MHC complex (pMHC) was determined by measuring the amount of b2m associated with the MHC heavy chain over time at 37° C. (Harndahl et al., 2012). The stability of each pMHC, expressed as the half life of b2m associated with the respective heavy chain, was calculated by fitting the data to a one-phase dissociation equation.

B1: VLQGLLRSL (peptide)
peptide: VLQGLLRSL
B1 displayed a peptide exchange yield in the test with HLA-A*02:01 greater than 75%.

B2: PLPRPGAVL (peptide)
peptide: PLPRPGAVL
In the test with HLA-A*02:01, B2 gave a peptide exchange yield of 10 to 20%.

B3: REPGDIFSEL (peptide)
peptide: REPGDIFSEL
For the molecule B3, the peptide exchange yield with HLA-B*44:02 fell in the range of 20 to 50%.

B4: SAIPFSMTL (peptide)
peptide: SAIPFSMTL
The molecule B4 showed a peptide exchange yield in the test with HLA-A*02:01 of 50 to 75%.

B5: SLGKHTVAL (peptide)
peptide: SLGKHTVAL
B5: the peptide exchange yield with HLA-A*02:01 is 50 to 75%.

B6: YASEGVKQV (peptide)
peptide: YASEGVKQV
Regarding B6, in the test with HLA-A*02:01, the peptide exchange yield is 50 to 75%.

B7: DTDSSVHVQV (peptide)
peptide: DTDSSVHVQV
Molecule B7 yielded a peptide exchange yield with HLA-A*02:01 of 10 to 20%.

B8: GLLSLTSTLYL (peptide)
peptide: GLLSLTSTLYL
The molecule B8 came in with a peptide exchange yield in the test with HLA-A*02:01 greater than 75%.

B9: FLIEELLFA (peptide)
peptide: FLIEELLFA
In turn, B9 displayed a peptide exchange yield with HLA-A*02:01 greater than 75%.

B10: RMTTQLLLL (peptide)
peptide: RMTTQLLLL
In the test with HLA-A*02:01, B10 returned a peptide exchange yield of 50 to 75%.

B11: HEFGHVLGL (peptide)
peptide: HEFGHVLGL
As to B11, in the test with HLA-B*44:02, the peptide exchange yield lay within 20 to 50%.

B12: RLWDWVPLA (peptide)
peptide: RLWDWVPLA
B12: the peptide exchange yield with HLA-A*02:01 is greater than 75%.

B13: VLLAGFKPPL (peptide)
peptide: VLLAGFKPPL
In the test with HLA-A*02:01, B13 showed a peptide exchange yield of 10 to 20%.

B14: SEVPTGTTA (peptide)
peptide: SEVPTGTTA
B14 showed a peptide exchange yield with HLA-B*44:02 of 20 to 50%.

B15: FAHHGRSL (peptide)
peptide: FAHHGRSL
Turning to B15, in the test with HLA-A*02:01, the peptide exchange yield fell in the range of 10 to 20%.

B16: IMFDDAIERA (peptide)
peptide: IMFDDAIERA
On to B16, for which the peptide exchange yield in the test with HLA-A*02:01 is greater than 75%.

B17: HESSSHHDL (peptide)
peptide: HESSSHHDL
In the test with HLA-B*44:02, B17 had a peptide exchange yield of 20 to 50%.

B18: TTYEGSITV (peptide)
peptide: TTYEGSITV
As to B18, in the test with HLA-A*02:01, the peptide exchange yield is greater than 75%.

B19: ISVPAKTSL (peptide)
peptide: ISVPAKTSL
In turn, B19 came in with a peptide exchange yield in the test with HLA-A*02:01 of 10 to 20%.

B20: MMEEMIFNL (peptide)
peptide: MMEEMIFNL
With B20, the peptide exchange yield with HLA-A*02:01 is greater than 75%.

B21: SLPRFQVTL (peptide)
peptide: SLPRFQVTL
Molecule B21 gave a peptide exchange yield with HLA-A*02:01 greater than 75%.

B22: SLLDLYQL (peptide)
peptide: SLLDLYQL
On to B22, for which the peptide exchange yield with HLA-A*02:01 is 20 to 50%.

B23: YLEDTDRNL (peptide)
peptide: YLEDTDRNL
B23 registered a peptide exchange yield with HLA-A*02:01 greater than 75%.

B24: TISSLTHEL (peptide)
peptide: TISSLTHEL
For the molecule B24, in the test with HLA-A*02:01, the peptide exchange yield was greater than 75%.

B25: ALKARTVTF (peptide)
peptide: ALKARTVTF
In the case of B25, in test [1], the “mean half-life (T1/2) of peptide-MHC complex” value (“mean half-life” below) lay in the range of 6 to 10 h.

B26: RQPNILVHL (peptide)
peptide: RQPNILVHL
B26: the peptide exchange yield with HLA-A*02:01 is 20 to 50%.

B27: YTFRYPLSL (peptide)
peptide: YTFRYPLSL
In the test with HLA-A*02:01, B27 came in with a peptide exchange yield of 50 to 75%.

B28: PEKTTHSF (peptide)
peptide: PEKTTHSF
Regarding B28, the peptide exchange yield with HLA-B*44:02 lay within 10 to 20%.

B29: YLVTKVVAV (peptide)
peptide: YLVTKVVAV
In turn, B29 had a peptide exchange yield in the test with HLA-A*02:01 greater than 75%.

B30: GEPATTVSL (peptide)
peptide: GEPATTVSL
Regarding B30, the peptide exchange yield in the test with HLA-B*44:02 lay in the range of 20 to 50%.

B31: DMKKAKEQL (peptide)
peptide: DMKKAKEQL
Take B31: in test [1], the “mean half-life” value was in the range of 2 to 4 h.

B32: KEAIREHQM (peptide)
peptide: KEAIREHQM
B32: the peptide exchange yield in the test with HLA-B*44:02 lay in the range of 20 to 50%.

B33: TEFPLFSAA (peptide)
peptide: TEFPLFSAA
As to B33, in the test with HLA-B*44:02, the peptide exchange yield was 10 to 20%.

B34: LNKQKVTF (peptide)
peptide: LNKQKVTF
Regarding B34, the “mean half-life” value in test [1] was greater than 10 h.

B35: ALFKAWAL (peptide)
peptide: ALFKAWAL
On to B35, for which the peptide exchange yield with HLA-A*02:01 was greater than 75%.

B36: KLFDTQQFL (peptide)
peptide: KLFDTQQFL
The molecule B36 had a peptide exchange yield with HLA-A*02:01 greater than 75%.

B37: ALQAFEFRV (peptide)
peptide: ALQAFEFRV
In the test with HLA-A*02:01, B37 came in with a peptide exchange yield greater than 75%.

B38: AEHFSMIRA (peptide)
peptide: AEHFSMIRA
B38 gave a peptide exchange yield with HLA-B*44:02 of 20 to 50%.

B39: TEAVVTNEL (peptide)
peptide: TEAVVTNEL
For the molecule B39, the peptide exchange yield with HLA-B*44:02 lay in the range of 20 to 50%.

B40: ALMRLIGCPL (peptide)
peptide: ALMRLIGCPL
In the test with HLA-A*02:01, B40 came in with a peptide exchange yield greater than 75%.

B41: AEQDPDELNKA (peptide)
peptide: AEQDPDELNKA
Regarding B41, the peptide exchange yield with HLA-B*44:02 was 20 to 50%.

B42: VSSSLTLKV (peptide)
peptide: VSSSLTLKV
Molecule B42 returned a peptide exchange yield with HLA-A*02:01 of 10 to 20%.

B43: REKFIASVI (peptide)
peptide: REKFIASVI
On to B43, for which the peptide exchange yield with HLA-B*44:02 lay within 20 to 50%.

B44: SLLLPSIFL (peptide)
peptide: SLLLPSIFL
In the test with HLA-A*02:01, B44 had a peptide exchange yield greater than 75%.

B45: SDSQVRAF (peptide)
peptide: SDSQVRAF
B45 yielded a peptide exchange yield with HLA-B*44:02 of 10 to 20%.

B46: SVTESTHHL (peptide)
peptide: SVTESTHHL
In turn, B46 had a peptide exchange yield with HLA-A*02:01 of 50 to 75%.

B47: MIPTFTALL (peptide)
peptide: MIPTFTALL
B47 displayed a peptide exchange yield with HLA-A*02:01 of 50 to 75%.

B48: KVLGVNVML (peptide)
peptide: KVLGVNVML
Molecule B48 came in with a peptide exchange yield with HLA-A*02:01 greater than 75%.

B49: YLTDLQVSL (peptide)
peptide: YLTDLQVSL
Turning to B49, the peptide exchange yield with HLA-A*02:01 was greater than 75%.

B50: TLLKALLEI (peptide)
peptide: TLLKALLEI
In the test with HLA-A*02:01, B50 displayed a peptide exchange yield greater than 75%.

B51: REEFVSIDHL (peptide)
peptide: REEFVSIDHL
B51: the peptide exchange yield with HLA-B*44:02 was in the range of 20 to 50%.

B52: RLLDFINVL (peptide)
peptide: RLLDFINVL
Turning to B52, in the test with HLA-A*02:01, the peptide exchange yield was greater than 75%.

B53: ALIYNLVGI (peptide)
peptide: ALIYNLVGI
For B53, in the test with HLA-A*02:01, the peptide exchange yield is greater than 75%.

B54: STIPALHEI (peptide)
peptide: STIPALHEI
B54 gave a peptide exchange yield in the test with HLA-A*02:01 of 50 to 75%.

B55: GVATRVDAI (peptide)
peptide: GVATRVDAI
As for B55, the peptide exchange yield in the test with HLA-A*02:01 is 20 to 50%.

B56: VGREKKLAL (peptide)
peptide: VGREKKLAL
With B56, the “mean half-life” value in test [1] fell in the range of 4 to 6 h.

B57: YMVHIQVTL (peptide)
peptide: YMVHIQVTL
For B57, in the test with HLA-A*02:01, the peptide exchange yield is greater than 75%.

B58: FLDPDRHFL (peptide)
peptide: FLDPDRHFL
Molecule B58 returned a peptide exchange yield in the test with HLA-A*02:01 greater than 75%.

B59: FESHSTVSA (peptide)
peptide: FESHSTVSA
Consider B59, for which the peptide exchange yield with HLA-B*44:02 is 10 to 20%.

B60: GLLQELSSI (peptide)
peptide: GLLQELSSI
Consider B60, for which, in the test with HLA-A*02:01, the peptide exchange yield is greater than 75%.

B61: EEQYIAQF (peptide)
peptide: EEQYIAQF
In turn, B61 registered a peptide exchange yield with HLA-B*44:02 of 10 to 20%.

B62: KVVSVLYNV (peptide)
peptide: KVVSVLYNV
For the molecule B62, in the test with HLA-A*02:01, the peptide exchange yield is greater than 75%.
